Patent US20140072613A1 (published 2014)

Assays:
Assay in all cases: cell-based or functional assay
JNK2α2(h) = JNK2α2(h) (human, UniProt P45984 1-424)
PAK6(h) = PAK6(h) (human, UniProt Q9NQU5 1-681, limits assumed)
Aurora-A(h) = biological target: T1, Aurora-A(h) (human, UniProt O14965 1-403)
T1 sequence (looked up): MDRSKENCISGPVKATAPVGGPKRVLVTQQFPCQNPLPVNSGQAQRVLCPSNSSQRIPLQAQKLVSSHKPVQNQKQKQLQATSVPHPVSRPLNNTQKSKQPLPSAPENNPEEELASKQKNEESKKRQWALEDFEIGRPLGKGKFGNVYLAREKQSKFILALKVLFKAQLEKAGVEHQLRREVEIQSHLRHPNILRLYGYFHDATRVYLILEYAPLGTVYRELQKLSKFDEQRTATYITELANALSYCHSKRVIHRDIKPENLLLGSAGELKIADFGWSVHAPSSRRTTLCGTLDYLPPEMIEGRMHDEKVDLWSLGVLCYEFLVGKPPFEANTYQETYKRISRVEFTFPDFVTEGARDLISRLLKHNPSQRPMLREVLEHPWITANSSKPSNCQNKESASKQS

PKCζ(h) = biological target: T2, PKCζ(h) (human, UniProt Q05513 1-592)
T2 sequence (looked up): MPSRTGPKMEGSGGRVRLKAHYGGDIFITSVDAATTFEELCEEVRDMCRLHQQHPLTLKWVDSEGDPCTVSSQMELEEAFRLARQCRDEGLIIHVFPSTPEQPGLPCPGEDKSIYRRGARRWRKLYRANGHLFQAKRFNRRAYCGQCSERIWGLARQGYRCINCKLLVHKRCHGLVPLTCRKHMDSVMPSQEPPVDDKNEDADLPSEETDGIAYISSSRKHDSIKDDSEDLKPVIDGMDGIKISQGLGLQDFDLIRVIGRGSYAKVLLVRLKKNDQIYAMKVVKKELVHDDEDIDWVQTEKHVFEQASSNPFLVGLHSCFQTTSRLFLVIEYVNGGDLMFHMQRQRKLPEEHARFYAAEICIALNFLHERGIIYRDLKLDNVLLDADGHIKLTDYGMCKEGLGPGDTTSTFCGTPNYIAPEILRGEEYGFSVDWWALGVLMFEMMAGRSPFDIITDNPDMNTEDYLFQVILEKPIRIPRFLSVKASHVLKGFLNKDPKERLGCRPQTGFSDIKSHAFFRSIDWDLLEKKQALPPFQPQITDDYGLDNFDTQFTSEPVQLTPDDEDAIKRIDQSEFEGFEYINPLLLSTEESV

PrKX(h) = biological target: T3, PrKX(h) (human, UniProt P51817 1-358)
T3 sequence (looked up): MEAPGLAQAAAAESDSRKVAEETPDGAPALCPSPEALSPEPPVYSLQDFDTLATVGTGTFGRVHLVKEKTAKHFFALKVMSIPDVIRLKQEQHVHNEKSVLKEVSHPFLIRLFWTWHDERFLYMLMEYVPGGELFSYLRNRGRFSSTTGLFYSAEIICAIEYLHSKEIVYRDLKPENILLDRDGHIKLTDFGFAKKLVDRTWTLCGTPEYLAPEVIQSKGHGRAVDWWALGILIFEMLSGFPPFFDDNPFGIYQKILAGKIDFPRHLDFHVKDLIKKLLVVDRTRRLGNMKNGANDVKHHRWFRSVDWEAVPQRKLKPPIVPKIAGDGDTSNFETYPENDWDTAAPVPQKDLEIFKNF

Txk(h) = biological target: T4, Txk(h) (human, UniProt P42681 1-527, limits assumed)
T4 sequence (looked up): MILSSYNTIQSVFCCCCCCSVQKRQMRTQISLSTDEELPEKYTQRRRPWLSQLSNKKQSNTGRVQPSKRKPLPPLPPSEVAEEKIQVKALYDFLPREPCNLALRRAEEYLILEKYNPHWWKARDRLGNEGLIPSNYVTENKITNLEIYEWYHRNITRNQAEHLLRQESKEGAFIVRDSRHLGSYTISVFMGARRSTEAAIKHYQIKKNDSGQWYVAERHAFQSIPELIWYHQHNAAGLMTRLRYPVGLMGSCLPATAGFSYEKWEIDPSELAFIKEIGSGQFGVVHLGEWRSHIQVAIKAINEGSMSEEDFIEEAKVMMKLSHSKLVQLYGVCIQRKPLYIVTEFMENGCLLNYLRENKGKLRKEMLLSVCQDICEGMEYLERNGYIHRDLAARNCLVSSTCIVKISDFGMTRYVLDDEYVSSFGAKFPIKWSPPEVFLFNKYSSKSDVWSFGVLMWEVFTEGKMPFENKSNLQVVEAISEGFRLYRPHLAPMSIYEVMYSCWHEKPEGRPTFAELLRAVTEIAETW

CDK2/cyclinA(h) = CDK2/cyclinA(h) (human, UniProt P24941 1-298; P20248 1-432)
CK2(h) = CK2(h) (human)
EphB4(h) = biological target: T5, EphB4(h) (human, UniProt P54760 561-987, limits assumed)
T5 sequence (looked up): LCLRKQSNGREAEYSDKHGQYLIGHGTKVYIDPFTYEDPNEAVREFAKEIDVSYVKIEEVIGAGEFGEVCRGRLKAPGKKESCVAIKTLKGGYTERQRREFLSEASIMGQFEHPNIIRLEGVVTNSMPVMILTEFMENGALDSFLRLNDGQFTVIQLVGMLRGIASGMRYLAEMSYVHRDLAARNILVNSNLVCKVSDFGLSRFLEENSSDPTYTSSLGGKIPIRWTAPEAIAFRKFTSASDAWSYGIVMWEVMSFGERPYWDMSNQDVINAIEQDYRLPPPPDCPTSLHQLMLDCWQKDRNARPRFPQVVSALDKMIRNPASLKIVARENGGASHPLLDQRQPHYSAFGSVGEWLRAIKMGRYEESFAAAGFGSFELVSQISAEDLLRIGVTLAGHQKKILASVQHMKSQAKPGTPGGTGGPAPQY

PAK6(h), sequence (Q9NQU5 whole entry): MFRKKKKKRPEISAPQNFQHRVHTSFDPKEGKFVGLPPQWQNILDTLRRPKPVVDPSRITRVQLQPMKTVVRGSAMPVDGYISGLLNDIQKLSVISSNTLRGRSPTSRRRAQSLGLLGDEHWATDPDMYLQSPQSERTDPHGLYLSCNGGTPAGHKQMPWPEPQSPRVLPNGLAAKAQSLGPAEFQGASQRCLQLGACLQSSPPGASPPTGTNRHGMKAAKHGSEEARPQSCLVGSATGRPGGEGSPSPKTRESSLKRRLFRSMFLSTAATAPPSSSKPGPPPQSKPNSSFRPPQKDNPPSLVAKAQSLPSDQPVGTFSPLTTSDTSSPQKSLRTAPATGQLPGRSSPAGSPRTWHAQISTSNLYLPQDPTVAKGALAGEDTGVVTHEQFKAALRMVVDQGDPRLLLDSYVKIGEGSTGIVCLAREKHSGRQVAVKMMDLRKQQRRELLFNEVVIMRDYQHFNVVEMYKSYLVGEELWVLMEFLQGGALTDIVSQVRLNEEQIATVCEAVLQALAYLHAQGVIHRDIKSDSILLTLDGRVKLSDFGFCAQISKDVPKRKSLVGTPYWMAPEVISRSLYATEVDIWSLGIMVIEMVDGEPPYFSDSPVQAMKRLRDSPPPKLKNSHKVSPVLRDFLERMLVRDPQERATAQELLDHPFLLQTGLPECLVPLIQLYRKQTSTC

For FAKLAARLYRKALARQLGVAA [MMI-0300], the “% activity, 100 µM” value (JNK2α2(h)) was 98%, the “% activity, 100 µM” value (PAK6(h)) was 104% and the “% activity, 100 µM” value (Aurora-A(h)) was 92%. For the same binder, the “% activity, 100 µM” value (PKCζ(h)) was 81%, the “% activity, 100 µM” value (PrKX(h)) was 61% and the “% activity, 100 µM” value (Txk(h)) was 48%. The “% activity, 100 µM” value (CDK2/cyclinA(h)) was 86%, the “% activity, 100 µM” value (CK2(h)) was 90% and the “% activity, 100 µM” value (EphB4(h)) was 44%.

For KAFAKLAARLYRKALARQLGVAA [MMI-0400], the “% activity, 100 µM” value (JNK2α2(h)) was 96%, the “% activity, 100 µM” value (PAK6(h)) was 100% and the “% activity, 100 µM” value (Aurora-A(h)) was 119%. The “% activity, 100 µM” value (PKCζ(h)) was 75%, the “% activity, 100 µM” value (PrKX(h)) was 76% and the “% activity, 100 µM” value (Txk(h)) was 37%. The “% activity, 100 µM” value (CDK2/cyclinA(h)) was 92%, the “% activity, 100 µM” value (CK2(h)) was 101% and the “% activity, 100 µM” value (EphB4(h)) was 28%.
